Experiments:
Test in all cases: cell-based or functional assay
[1] = molecular target: HIV-1 JRCSF envelope glycoprotein (Env) on pseudovirus (HIV-1) (UniProt P20871)
[2] = molecular target: HIV-1 MGRM-A-010 envelope glycoprotein (Env) on pseudovirus (HIV-1)
[3] = molecular target: HIV-1 94UG103 envelope glycoprotein (Env) on pseudovirus (HIV-1)
[4] = molecular target: HIV-1 93IN905 envelope glycoprotein (Env) on pseudovirus (HIV-1)
[5] = molecular target: HIV-1 MGRM-C-027 envelope glycoprotein (Env) on pseudovirus (HIV-1)
[6] = molecular target: HIV-1 92UG024 envelope glycoprotein (Env) on pseudovirus (HIV-1)
[7] = molecular target: HIV-1 APV17 envelope glycoprotein (Env) on pseudovirus (HIV-1)
[8] = molecular target: HIV-1 MGRM-C-028 envelope glycoprotein (Env) on pseudovirus (HIV-1)
[9] = molecular target: HIV-1 APV6 envelope glycoprotein (Env) on pseudovirus (HIV-1)
[10] = molecular target: HIV-1 MGRM-AG-005 envelope glycoprotein (Env) on pseudovirus (HIV-1)
[11] = molecular target: HIV-1 92UG005 envelope glycoprotein (Env) on pseudovirus (HIV-1)
[12] = molecular target: HIV-1 APV13 envelope glycoprotein (Env) on pseudovirus (HIV-1)
[13] = molecular target: HIV-1 JRFL envelope glycoprotein (Env) on pseudovirus (HIV-1)
[14] = molecular target: HIV-1 93UG077 envelope glycoprotein (Env) on pseudovirus (HIV-1)
[15] = molecular target: HIV-1 CMU02 envelope glycoprotein (Env) on pseudovirus (HIV-1)
[16] = molecular target: HIV-1 MGRM-D-001 envelope glycoprotein (Env) on pseudovirus (HIV-1)
[17] = molecular target: aMLV envelope protein on pseudovirus (negative control virus)
[18] = molecular target: HIV-1 92TH021 envelope glycoprotein (Env) on pseudovirus (HIV-1)
[19] = molecular target: HIV-1 MGRM-D-018 envelope glycoprotein (Env) on pseudovirus (HIV-1)
[20] = molecular target: HIV-1 NL43 envelope glycoprotein (Env) on pseudovirus (HIV-1)
[21] = molecular target: panel of 22 HIV-1 pseudoviruses of Table 52
[22] = molecular target: HIV-1 MGRM-C-026 envelope glycoprotein (Env) on pseudovirus (HIV-1)
[23] = molecular target: HIV-1 92RW020 envelope glycoprotein (Env) on pseudovirus (HIV-1)
[24] = molecular target: HIV-1 92BR020 envelope glycoprotein (Env) on pseudovirus (HIV-1)

B1: PGT-136 (5329_C19; 5366_P21) (antibody, V domains shown)
VH: QLQLQESGPGLVKPSETLSLTCTVSGGSMRGTDWGENDFHYGWIRQSSAKGLEWIGSIHWRGRTTHYKTSFRSRATLSIDTSNNRFSLTFSFVTAADTAVYYCARHKYHDIFRVVPVAGWFDPWGQGLLVTVSS
VL: EIVMTQSPPTLSVSPGETATLSCRASQNVKNNLAWYQLKPGQAPRLLIFDASSRAGGIPDRFSGSGYGTDFTLTVNSVQSEDFGDYFCQQYEEWPRTFGQGTKVDIK
- IC50, pseudovirus neutralization [1]: > 10 µg/mL
- IC50, pseudovirus neutralization [2]: > 10 µg/mL
- IC50, pseudovirus neutralization [3]: > 10 µg/mL
- IC50, pseudovirus neutralization [4]: 0.0135 µg/mL
- IC50, pseudovirus neutralization [5]: > 10 µg/mL
- IC50, pseudovirus neutralization [6]: 0.0915 µg/mL
- IC50, pseudovirus neutralization [7]: > 10 µg/mL
- IC50, pseudovirus neutralization [8]: > 10 µg/mL
- IC50, pseudovirus neutralization [9]: > 10 µg/mL
- IC50, pseudovirus neutralization [10]: > 10 µg/mL
- IC50, pseudovirus neutralization [11]: > 10 µg/mL
- IC50, pseudovirus neutralization [12]: > 10 µg/mL
- IC50, pseudovirus neutralization [13]: > 10 µg/mL
- IC50, pseudovirus neutralization [14]: > 10 µg/mL
- IC50, pseudovirus neutralization [15]: > 10 µg/mL
- IC50, pseudovirus neutralization [16]: > 10 µg/mL
- IC50, pseudovirus neutralization [17]: > 10 µg/mL
- IC50, pseudovirus neutralization [18]: > 10 µg/mL
- IC50, pseudovirus neutralization [19]: > 10 µg/mL
- IC50, pseudovirus neutralization [20]: > 10 µg/mL
- % neutralized [21]: 18%
- median IC50, pseudovirus neutralization [21]: 0.05 µg/mL
- IC50, pseudovirus neutralization [22]: 0.0065 µg/mL

B2: 5147_N06 (PGT-130) human monoclonal antibody (antibody, V domains shown)
VH: QVQLQESGPGLVKPAETLSLTCSVSGESINTGHYYWGWVRQVPGKGLEWIGHIHYTTAVLHNPSLKSRLTIKIYTLRNQITLRLSNVTAADTAVYHCVRSGGDILYYYEWQKPHWFSPWGPGIHVTVSS
VL: QSALTQPPSASGSLGQSVTISCNGTSSDIGGWNFVSWYQQFPGRAPRLIIFEVNKRPSGVPGRFSGSKSGNSASLTVSGLQSDDEGQYFCSSLFGRWDVVFGGGTKLTVL
- IC50, neutralization of pseudovirus [23]: 0.014 µg/mL
- IC80, neutralization of pseudovirus [23]: 0.508 µg/mL
- IC90 (neutralization of pseudovirus) [23]: 3.68 µg/mL
- IC95, neutralization of pseudovirus [23]: > 10 µg/mL
- IC50, neutralization of pseudovirus [1]: 0.0089 µg/mL
- IC80, neutralization of pseudovirus [1]: 0.0317 µg/mL
- IC90 (neutralization of pseudovirus) [1]: 0.0669 µg/mL
- IC95, neutralization of pseudovirus [1]: 0.134 µg/mL
- IC50, neutralization of pseudovirus [2]: 0.0054 µg/mL
- IC80, neutralization of pseudovirus [2]: 0.0251 µg/mL
- IC90 (neutralization of pseudovirus) [2]: 0.0643 µg/mL
- IC95, neutralization of pseudovirus [2]: 0.164 µg/mL
- IC50, neutralization of pseudovirus [3]: 0.635 µg/mL
- IC80, neutralization of pseudovirus [3]: > 10 µg/mL
- IC90 (neutralization of pseudovirus) [3]: > 10 µg/mL
- IC95, neutralization of pseudovirus [3]: > 10 µg/mL
- IC50, neutralization of pseudovirus [4]: 0.0182 µg/mL
- IC80, neutralization of pseudovirus [4]: 0.272 µg/mL
- IC90 (neutralization of pseudovirus) [4]: 1.31 µg/mL
- IC95, neutralization of pseudovirus [4]: 5.48 µg/mL
- IC50, neutralization of pseudovirus [5]: 0.0052 µg/mL
- IC80, neutralization of pseudovirus [5]: 0.0318 µg/mL
- IC90 (neutralization of pseudovirus) [5]: 0.106 µg/mL
- IC95, neutralization of pseudovirus [5]: 0.464 µg/mL
- IC50, neutralization of pseudovirus [6]: > 10 µg/mL
- IC80, neutralization of pseudovirus [6]: > 10 µg/mL
- IC90 (neutralization of pseudovirus) [6]: > 10 µg/mL
- IC95, neutralization of pseudovirus [6]: > 10 µg/mL
- IC50, neutralization of pseudovirus [7]: > 10 µg/mL
- IC80, neutralization of pseudovirus [7]: > 10 µg/mL
- IC90 (neutralization of pseudovirus) [7]: > 10 µg/mL
- IC95, neutralization of pseudovirus [7]: > 10 µg/mL
- IC50, neutralization of pseudovirus [8]: > 10 µg/mL
- IC80, neutralization of pseudovirus [8]: > 10 µg/mL
- IC90 (neutralization of pseudovirus) [8]: > 10 µg/mL
- IC95, neutralization of pseudovirus [8]: > 10 µg/mL
- IC50, neutralization of pseudovirus [9]: > 10 µg/mL
- IC80, neutralization of pseudovirus [9]: > 10 µg/mL
- IC90 (neutralization of pseudovirus) [9]: > 10 µg/mL
- IC95, neutralization of pseudovirus [9]: > 10 µg/mL
- IC50, neutralization of pseudovirus [10]: 0.947 µg/mL
- IC80, neutralization of pseudovirus [10]: > 10 µg/mL
- IC90 (neutralization of pseudovirus) [10]: > 10 µg/mL
- IC95, neutralization of pseudovirus [10]: > 10 µg/mL
- IC50, neutralization of pseudovirus [11]: 0.474 µg/mL
- IC80, neutralization of pseudovirus [11]: > 10 µg/mL
- IC90 (neutralization of pseudovirus) [11]: > 10 µg/mL
- IC95, neutralization of pseudovirus [11]: > 10 µg/mL
- IC50, neutralization of pseudovirus [12]: 0.0345 µg/mL
- IC80, neutralization of pseudovirus [12]: 0.573 µg/mL
- IC90 (neutralization of pseudovirus) [12]: 2.88 µg/mL
- IC95, neutralization of pseudovirus [12]: > 10 µg/mL
- IC50, neutralization of pseudovirus [13]: 0.0346 µg/mL
- IC80, neutralization of pseudovirus [13]: 0.751 µg/mL
- IC90 (neutralization of pseudovirus) [13]: 5.72 µg/mL
- IC95, neutralization of pseudovirus [13]: > 10 µg/mL
- IC50, neutralization of pseudovirus [14]: > 10 µg/mL
- IC80, neutralization of pseudovirus [14]: > 10 µg/mL
- IC90 (neutralization of pseudovirus) [14]: > 10 µg/mL
- IC95, neutralization of pseudovirus [14]: > 10 µg/mL
- IC50, neutralization of pseudovirus [24]: 1.12 µg/mL
- IC80, neutralization of pseudovirus [24]: > 10 µg/mL
- IC90 (neutralization of pseudovirus) [24]: > 10 µg/mL
- IC95, neutralization of pseudovirus [24]: > 10 µg/mL
- IC50, neutralization of pseudovirus [15]: > 10 µg/mL
- IC80, neutralization of pseudovirus [15]: > 10 µg/mL
- IC90 (neutralization of pseudovirus) [15]: > 10 µg/mL
- IC95, neutralization of pseudovirus [15]: > 10 µg/mL
- IC50, neutralization of pseudovirus [16]: > 10 µg/mL
- IC80, neutralization of pseudovirus [16]: > 10 µg/mL
- IC90 (neutralization of pseudovirus) [16]: > 10 µg/mL
- IC95, neutralization of pseudovirus [16]: > 10 µg/mL
- IC50, neutralization of pseudovirus [17]: > 10 µg/mL
- IC80, neutralization of pseudovirus [17]: > 10 µg/mL
- IC90 (neutralization of pseudovirus) [17]: > 10 µg/mL
- IC95, neutralization of pseudovirus [17]: > 10 µg/mL
- IC50, neutralization of pseudovirus [18]: 0.0082 µg/mL
- IC80, neutralization of pseudovirus [18]: 0.0261 µg/mL
- IC90 (neutralization of pseudovirus) [18]: 0.0513 µg/mL
- IC95, neutralization of pseudovirus [18]: 0.0963 µg/mL
- IC50, neutralization of pseudovirus [19]: 0.0378 µg/mL
- IC80, neutralization of pseudovirus [19]: 0.289 µg/mL
- IC90 (neutralization of pseudovirus) [19]: 2.31 µg/mL
- IC95, neutralization of pseudovirus [19]: > 10 µg/mL
- IC50, neutralization of pseudovirus [20]: > 10 µg/mL
- IC80, neutralization of pseudovirus [20]: > 10 µg/mL
- IC90 (neutralization of pseudovirus) [20]: > 10 µg/mL
- IC95, neutralization of pseudovirus [20]: > 10 µg/mL
- IC50, neutralization of pseudovirus [22]: 0.0173 µg/mL
- IC80, neutralization of pseudovirus [22]: 0.263 µg/mL
- IC90 (neutralization of pseudovirus) [22]: 1.32 µg/mL
- IC95, neutralization of pseudovirus [22]: 6.13 µg/mL

B3: PGT-135 (5343_B08; 5344_E16) (antibody, V domains shown)
VH: QLQMQESGPGLVKPSETLSLSCTVSGDSIRGGEWGDKDYHWGWVRHSAGKGLEWIGSIHWRGTTHYKESLRRRVSMSIDTSRNWFSLRLASVTAADTAVYFCARHRHHDVFMLVPIAGWFDVWGPGVQVTVSS
VL: EIVMTQSPDTLSVSPGETVTLSCRASQNINKNLAWYQYKPGQSPRLVIFETYSKIAAFPARFVASGSGTEFTLTINNMQSEDVAVYYCQQYEEWPRTFGQGTKVDIK
- IC50, pseudovirus neutralization [1]: 0.113 µg/mL
- IC50, pseudovirus neutralization [2]: > 10 µg/mL
- IC50, pseudovirus neutralization [3]: > 10 µg/mL
- IC50, pseudovirus neutralization [4]: 0.0183 µg/mL
- IC50, pseudovirus neutralization [5]: > 10 µg/mL
- IC50, pseudovirus neutralization [6]: 0.0139 µg/mL
- IC50, pseudovirus neutralization [7]: > 10 µg/mL
- IC50, pseudovirus neutralization [8]: 2.16 µg/mL
- IC50, pseudovirus neutralization [9]: > 10 µg/mL
- IC50, pseudovirus neutralization [10]: > 10 µg/mL
- IC50, pseudovirus neutralization [11]: > 10 µg/mL
- IC50, pseudovirus neutralization [12]: 0.545 µg/mL
- IC50, pseudovirus neutralization [13]: > 10 µg/mL
- IC50, pseudovirus neutralization [14]: > 10 µg/mL
- IC50, pseudovirus neutralization [15]: > 10 µg/mL
- IC50, pseudovirus neutralization [16]: > 10 µg/mL
- IC50, pseudovirus neutralization [17]: > 10 µg/mL
- IC50, pseudovirus neutralization [18]: > 10 µg/mL
- IC50, pseudovirus neutralization [19]: 0.0433 µg/mL
- IC50, pseudovirus neutralization [20]: 6.79 µg/mL
- % neutralized [21]: 54%
- median IC50, pseudovirus neutralization [21]: 0.11 µg/mL
- IC50, pseudovirus neutralization [22]: 0.0123 µg/mL

Reference: patent US20240132578A1
